For 1 substance, Kd and fold increase in binding after digitonin permeabilisation of the microsomes results are on record in article PMC6097701.

Experiment [1] has as its target HA-tagged human surfeit locus protein 4 (HA-Surf4) (human) (UniProt O15260). In words: binding to immuno-isolated microsomes on magnetic beads, bound GH read by ELISA; titration; microsomes of HA-Surf4-transfected HEK293A cells held on Protein G-Dynabeads with anti-Surf4 carboxy-terminal antibody, CEB-permeabilised; 0, 100, 200, 300, 400 or 800 nM GH for 1 hr at RT in KHMC buffer; GH eluted with … peptide; estimate of the binding constant from half-maximal ….

For experiment [2] the target is unchanged. The experiment is described as follows: co-sedimentation; crude microsomes from Surf4^KO HEK293A cells transfected with HA-Surf4, permeabilised with CEB (digitonin) 30 min on ice; 400 nM GH (conditioned media in KHMC buffer) 1 hr on ice; pelleted at >100,000 x g; bound GH released with … peptide and read by hGH ELISA; controls: microsomes without CEB and microsomes of untransfected Surf4^KO cells. On the technique in general: An ELISA detects its analyte on a solid surface through an enzyme-linked reagent.

UniProt O15260, sequence (O15260 whole entry): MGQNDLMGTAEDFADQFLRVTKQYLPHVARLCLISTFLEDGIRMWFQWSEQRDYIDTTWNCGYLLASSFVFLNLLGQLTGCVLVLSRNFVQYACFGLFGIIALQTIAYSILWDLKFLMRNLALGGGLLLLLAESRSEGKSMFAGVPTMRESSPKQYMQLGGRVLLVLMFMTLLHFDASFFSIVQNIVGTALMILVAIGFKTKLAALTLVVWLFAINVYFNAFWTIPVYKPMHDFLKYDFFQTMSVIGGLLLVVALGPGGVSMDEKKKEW

In the case of “APV-GH (human growth hormone-1 starting with alanine-proline-valine) (from UniProt P01241 27-217) (natural protein)”, in experiment [1], the Kd (as a rule, the constant that tells how readily two partners part at equilibrium) is 200 to 300 nM. Further, the fold increase in binding after digitonin permeabilisation of the microsomes in experiment [2] was > 5 fold.
